Target: T1, PRA (Homo sapiens, UniProt P06401)
T1 construct: expressed in transfected cells; host or cells: SHM (Syrian hamster myocyte) cells
T1 sequence (P06401 1-769 isoform P06401-2): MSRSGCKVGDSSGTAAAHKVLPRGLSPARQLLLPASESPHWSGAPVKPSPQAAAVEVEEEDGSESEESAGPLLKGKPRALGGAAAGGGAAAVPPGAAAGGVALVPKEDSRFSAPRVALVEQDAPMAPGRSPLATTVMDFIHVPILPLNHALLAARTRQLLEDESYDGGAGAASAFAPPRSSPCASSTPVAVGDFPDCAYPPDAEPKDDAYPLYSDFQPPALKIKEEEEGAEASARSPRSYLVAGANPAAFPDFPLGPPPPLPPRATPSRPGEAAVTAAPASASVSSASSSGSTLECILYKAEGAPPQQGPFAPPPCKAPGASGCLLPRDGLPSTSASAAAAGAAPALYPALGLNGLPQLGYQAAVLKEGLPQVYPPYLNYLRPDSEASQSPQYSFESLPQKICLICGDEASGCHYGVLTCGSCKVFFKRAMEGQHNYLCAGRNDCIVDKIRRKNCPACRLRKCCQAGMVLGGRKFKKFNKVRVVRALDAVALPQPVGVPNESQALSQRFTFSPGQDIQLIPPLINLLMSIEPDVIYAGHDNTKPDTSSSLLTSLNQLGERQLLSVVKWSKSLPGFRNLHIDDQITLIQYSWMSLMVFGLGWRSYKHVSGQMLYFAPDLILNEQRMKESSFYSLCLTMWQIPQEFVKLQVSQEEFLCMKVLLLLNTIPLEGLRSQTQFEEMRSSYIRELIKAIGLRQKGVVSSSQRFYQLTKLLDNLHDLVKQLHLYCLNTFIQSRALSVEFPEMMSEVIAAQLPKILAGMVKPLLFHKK
Assay: Transactivation of progesterone responsive promoters (3xPRE-Luc, MMTV-Luc) by PRA in SHM cells
Type: cell-based
Settings: 10 nM progesterone, increasing dose of His-PSF vector
Description: FIG. 4. PSF inhibit transactivation of PR but not estrogen receptor (ER). (A) SHM cells were transient cotransfected with PRA or PRB expression vectors with or without increasing dose (0.05, 0.1 and 0.2 μg) of His-PSF, together with 3×PRE (upper) or MMTV (lower) luciferase reporter vector. Four hours after transfection, culture medium was replaced with fresh DMEM containing 10 nM progesterone and the incubation continued for at least 30 hours. (B) SHM cells were transiently cotransfected with ERα or ERβ expression vector with (0.2 μg) or without His-PSF, together with 3×ERE luciferase reporter vector. Four hours after transfection, culture medium was replaced with fresh DMEM with (solid bar) or without (empty bar) 10 nM estrodial and incubation continued for at least 30 hours. Luciferase activity was measured and normalized by β-galatosidase activity. […]
For immunoprecipitation of the endogenous PR and PSF, T47D cells cultured in 150 mm dishes were lysed in 800 μl NETN buffer containing 150 mM NaCl plus protease inhibitor cocktail. […] Gels were treated with Enhancer (NEN, Boston, US) dried and analyzed by autoradiography. • Cell culture and transient transfection: SHM cells and 293T cells were maintained in DMEM plus 5% FCS (Sigma) as described before (22). […] Luciferase activity was determined by using the luciferin reagent (Promega) according to manufacture's protocol. […]

B1: polypyrimidine tract binding protein-associated splicing factor (protein)
chain: MSRDRFRSRGGGGGGFHRRGGGGGRGGLHDFRSPPPGMGLNQNRGPMGPGPGQSGPKPPIPPPPPHQQQQQPPPQQPPPQQPPPHQPPPHPQPHQQQQPPPPPQDSSKPVVAQGPGPAPGVGSAPPASSSAPPATPPTSGAPPGSGPGPTPTPPPAVTSAPPGAPPPTPPSSGVPTTPPQAGGPPPPPAAVPGPGPGPKQGPGPGGPKGGKMPGGPKPGGGPGLSTPGGHPKPPHRGGGEPRGGRQHHPPYHQQHHQGPPPGGPGGRSEEKISDSEGFKANLSLLRRPGEKTYTQRCRLFVGNLPADITEDEFKRLFAKYGEPGEVFINKGKGFGFIKLESRALAEIAKAELDDTPMRGRQLRVRFATHAAALSVRNLSPYVSNELLEEAFSQFGPIERAVVIVDDRGRSTGKGIVEFASKPAARKAFERCSEGVFLLTTTPRPVIVEPLEQLDDEDGLPEKLAQKNPMYQKERETPPRFAQHGTFEYEYSQRWKSLDEMEKQQREQVEKNMKDAKDKLESEMEDAYHEHQANLLRQDLMRRQEELRRMEELHNQEMQKRKEMQLRQEEERRRREEEMMIRQREMEEQMRRQREESYSRMGYMDPRERDMRMGGGGAMNMGDPYGSGGQKFPPLGGGGGIGYEANPGVPPATMSGSMMGSDMRTERFGQGGAGPVGGQGPRGMGPGTPAGYGRGREEYEGPNKKPRF
notes: expressed from transfected His-PSF vector or in vitro translated
PRA transactivation of MMTV and 3xPRE promoters: potently inhibited

From patent US20070286806A1, “Methods and Compositions for Modulating a Steroid Receptor” (Mount Sinai Hospital, priority 2004, published 2007)
